To fix the notation:
B1: TPR 5TU (parent)
chain: GGAUCUUCUCGAUCUAACAAAAAAGACAAAUCUGCCACAAAGCUUGAGAGCAUCUUCGGAUGCAGAGGCGGCAGCCUUCGGUGGCGCGAUAGCGCCAACGUUCUCAACUAUGACACGCAAAACGCGUGCUCCGUUGAAUGGAGUUUAUCAUG

Fewer inactive variants are shown than the library holds.

The data set covers variants of B1. As to the kind of experiment: polymerase ribozyme fitness, log enrichment relative to wild type (log ratio); higher = more active; in vitro selection for triplet polymerase activity. Summed up: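 Fitness is a logarithmic measure of how a genotype enriched relative to the wild type, with replicate averages weighted by inverse variance. The logarithm uses base 2, and enrichment came from Illumina sequencing of input and output libraries. Those libraries were PCR-built, transcribed mutants of each subunit of a heterodimeric triplet polymerase ribozyme, passed through one triplicate in vitro selection round that included frozen incubation at −7 °C, gel excision of extended constructs and streptavidin-bead capture. Genotypes were kept only if they had ≥10 input reads and ≥1 read per output.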
Turning to GGAUCUUCUCGAUCUAACAAAAAAGACAAAUCUGCCACAAAGCUAGAGAGCAUCUUCGGAUGCAGAGGCGGCAGCCUUCGGUGGCACGAUAGCGCCAACGUUCUCAACUAUGACACGCAAAACGCGUGCUCCGUUGAAUGGGGUUUAUCAUG [U45A G86A A142G], the “polymerase ribozyme fitness (log ratio)” value was not above -4.2.

Turning to GGAUCUUCUCGAUCUAACAAAAAAGACAAAUCUGUCACAAAGCUUGAGAGCCUCUUCGGAUGCAGAGGCGGCAGCCUUCGGUGGUGCGAUAGCGCCAACGUUCUCAACUAUGACACUCAAAACGCGUGCUCCGUUGAAUGGAGUUUAUCAUG [C35U A52C C85U G117U], the “polymerase ribozyme fitness (log ratio)” value was -2.29.

For the variant GGAUCUUCUCGAUCUAACAAAAAAGACAAAUCUGCCACAAAGCUUGAGAGCAUCUUCGGAUGCAGAGGCGGCAGCCUUCGGUGGCGAGAUAGCGCCAACUUUCUCAACUAUGACACGCAAAACGCGUGCUCCGUUGAAUGGAGUUUAUCAUG [C87A G100U], the “polymerase ribozyme fitness (log ratio)” value is not above -4.2.

GGAUCUUCUCGAUCUAACAAAAAAGACAAAUCUGCCCCAAAGCUUGAGAGCAUCUUAGGAUGCAGAGGCGGCAGCCUUCGGUGGCGCGAUAGCGCCAACGUUCUCAACUAUGACACGCAAAACGCGUGCUCCGUUGAAUGGAGUUUAUCAUG [A37C C57A]: the “polymerase ribozyme fitness (log ratio)” value is 0.0979.

GGAUCUUCUCGAUCUAACAAAAAAGACAAAUCUGCCACAAAGCUUGAGAGCAUCUUCGGAUGCAGAGGCGGCAGCCUUCGGUGGCGCGAUAGCGCCAACGUUCUCAACUAUGACAUGCUAAACGCGUGCUCCGUCGAAUGGAGUUUAUCAUG [C116U A119U U135C]: the “polymerase ribozyme fitness (log ratio)” value is -2.59.

Regarding GGAUCCUCUCGAUCUAACAAAAAAGACAAAUCUGCCACAAAGCUUGAGCGCAUCAUCGGAUGCAGAGGCGGCAGCCUUCGGUGGCGCGAUAGCGCCAACGUUCCCAACUAUGACACGCAAAACGCGUGCUCCGUUGAAUGGAGUUCAUCAUG [U6C A49C U55A U104C U146C], the “polymerase ribozyme fitness (log ratio)” value was not above -4.2.

Take GGAUCUUCUCGAUCUAACAAAAAAGAGAAAUCUGCCACAAAGCUUGAGAGCAUCUUCGGAUGCAGAGGCGGCAGCCUUCGGUGGCGCGAUAGUGCCAACGUUCUCAACUAUGACACGCAAAACGCGUGCUCCGUUGAAUGCAGUUUAUCAUG [C27G C93U G141C]: the “polymerase ribozyme fitness (log ratio)” value is -3.68.

For the variant GGAUCUUCUCGAUCUAACAAAAAAGACAAAUCUGCCACAAAGCUUGACAGCAACUUCGGAUGCAGAGGCGGCACCCUUCGGUGGUGCGAUAGCGCCAAUGUUCUCAACUAUGACACGCGGAACGCGUGCUCCGUUGAAUGGAGUUUAUCAUG [G48C U53A G74C C85U C99U A119G A120G], the “polymerase ribozyme fitness (log ratio)” value is not above -4.2.

For the variant GGCUCUUCUCGAUCUGACAAAAAAGACAAAUCUGCCACAAAGCUUGAGAGCAUCUUCGGAUGCAGAGGCGGCAGCCUUCGGUGGCGCGAUAGCGCCAACGUUCUCAACUAUGACACGCAAAACGCGUGCUCCGUUGAAUGGAGUUUAUCAUG [A3C A16G], the “polymerase ribozyme fitness (log ratio)” value was -1.12.

For the variant GGAUCUUCUCGAUCUAACAAAAAAGACAAAUCUGCCACAAAGCUUGAGAGCAUCUUCGGAUGCAGAGGCGGCAGCCUUCGGUGGAGCGAUAGCGCCAAAGUUCUCAACUAUGACACGCAAAACGCGUGCUCCGUUGAAUGGAGUUUAUCAUG [C85A C99A], the “polymerase ribozyme fitness (log ratio)” value is -2.8.

Regarding GGAUCUUUUCGAUCUAAGAAAAAAGACAAAUCUGACACAAAGCUUGAGAGCAACUUCCGAUGCAGAGGCGGCAGCCUUCGGUGGCGCGAUAGCGCCAACGUUCUCAACUAUGACACGCAAAACGCGUGCUCCGUUGAAUGGAGUUUAUCAUG [C8U C18G C35A U53A G58C], the “polymerase ribozyme fitness (log ratio)” value was not above -4.2.

With GGAUCUUCUCGAUCUAACAAAAAAGACAAAUCUGCCACAAAGCUUGAGAGCAUCUUCGAAUGCAGAGGCGGCAGCCUUCGGUGGCGCGAUAGAGCCAACGUUCUCAACUAUGACACGCAAAACGCGUGCUCCGUUGAAUGGAGUUUAUCAUG [G59A C93A], the “polymerase ribozyme fitness (log ratio)” value is -3.22.

Regarding GGAUCUUCUCGAUCUAACAAAAAAGACAAAUAUGCCUCAAAGCUUGAGAGCAUCUACGGAUGCAGAGGCGGCAACGUUCGGUGGCACGAUAGCGCCAACGUUCUCAACUAUGACGCGCAAAACACGUGCUCCGUUGAAUGGAGUUUAUCAGG [C32A A37U U56A G74A C76G G86A A115G G124A U151G], the “polymerase ribozyme fitness (log ratio)” value is not above -4.2.

For the variant GGAUCUUCUCGAUCUAACAAAAAAGACAAAUCUGCCACAAAGCUUGAGAGCUUUUUCGGAUGCAGAGGCGGCAGCCUUCGGUGGCGCGAUAGCGCCUACGUUCUCAACUAUGACACGCAAAACGCGUGCUCCGUUGAAUGGAGUUUAUCAUG [A52U C54U A97U], the “polymerase ribozyme fitness (log ratio)” value was -2.56.

GGAUCUUCUCGAUCUAACAAAAAAGACAAAUCUUCCACAGAGCUUGAGAGCAUCUUCGGAUGCAGAGGUGGCAGCCUUCUGUGGCGCGAUAGCGCCAAUGUUCUCAGCUAUGACACGCAAAACGCGUGCUCCGUUGAAGUGAGUUUACCAUG [G34U A40G C69U G80U C99U A107G U139G G140U U148C]: the “polymerase ribozyme fitness (log ratio)” value was not above -4.2.

For the variant GGAUCUUCUCGAUCUAACAAAAAAGACAAAUCUGCCACACAGCUUGAGAGCAUCUUCGGAUGCAGAGGCGGCAGCCUUCGGUGGCGCGAUAGCGUCAACGUUCUCAACUAUGACACGCAAAACGCGUGCUCCGUUGAAUGGAGUUUAUCAUG [A40C C95U], the “polymerase ribozyme fitness (log ratio)” value was -0.646.

For GGAUCUUCUCGAUCUAACAAAAAUGACAAAUCUGCCACAAAGAUUGAGAGCAUCUUCGGCUGCAGAGGCGGCAGCCUUCGGUGGCGCGAUAGCGCAAACGUUCUCAACUAUGACACGCUAAACGCAUGCUCCGUUGAAUGGAGUUUAUCAUG [A24U C43A A60C C96A A119U G126A], the “polymerase ribozyme fitness (log ratio)” value is not above -4.2.

For the variant GGAUCUUCUCGAUCUAACAAAAAAGACAAAUCUGCCACAAAGCUUGAGAGCAUCUUCGCAUGCAGAGGCGGCAGCCUUCGGUGGCGCGAUAGCACCAACGGUCUCAACUAUGCCACGCAAAACGCGUGCUCCGUUGAAUGGAGUUUAUCAUG [G59C G94A U101G A113C], the “polymerase ribozyme fitness (log ratio)” value was not above -4.2.

Consider GGAUCUUCUCGAUCUAACAAAAAAGACAAAUUUGCCACAAAGCUUGAGAGCAUCUUCGUAUGCAGAGGCGGCAGCCUUCGAUGGCGCGAUAGCGCCAACGUUCUCAACUAUGACACGCAAAACGCGUGCUCCGUUGAAUGGAGUUUAUCAUG [C32U G59U G81A], for which the “polymerase ribozyme fitness (log ratio)” value was -3.13.

These data come from the RNAGym collection of RNA variant scans (doi:10.1073/pnas.2313332121).
